According to article PMC12772958:

Target: PLEKHO2
Assay: BioID in situ proximity labelling, streptavidin pulldown, mass spectrometry (LFQ)
Settings: U937 stable cell lines; biotin 24 h; n=3; read off a plot

enrichment: 5.2
Substance: BirA*–MYO1F tail (from UniProt O00160) K770A; R780A
